The numbers were not newly measured in PMC6551275, which cites them from elsewhere.

What is called Kd is the concentration at which binding is half-saturated.

This series deals with UBQLN2 UBA (Homo sapiens) (UniProt Q9UHD9).
UBQLN2 UBA (Homo sapiens), sequence (Q9UHD9 578-624): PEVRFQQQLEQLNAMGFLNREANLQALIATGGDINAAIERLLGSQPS

UBQLN2 UBL, sequence (Q9UHD9 33-107): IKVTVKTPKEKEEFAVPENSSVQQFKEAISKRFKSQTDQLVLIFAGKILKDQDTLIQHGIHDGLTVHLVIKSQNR

Take UBQLN2 UBL (from UniProt Q9UHD9): the Kd was 175 µM.
